Publication PMC3139607, “Broad-Spectrum Inhibition of HIV-1 by a Monoclonal Antibody Directed against a gp120-Induced Epitope of CD4” (PLoS ONE, 2011)

Target: T1, MAb DB81 (Mus musculus)
T1 construct: IgH V1-39*01, D2-2*01, J3*01; IgK V6-17*01, J2*01; Whole mouse IgG1 kappa; only the variable domains are printed; The first and last residues of each V domain lie under the PCR primers; also called C9 (parent hybridoma well); anti-human CD4-HIV-1-gp120 complex DB81 monoclonal antibody; source: mouse hybridoma (spleen cells of immunized Balb/c mice x P3X63Ag8.653 myeloma); purified from cell …
T1 sequence (VH, as listed by the source, chain 1 of 2): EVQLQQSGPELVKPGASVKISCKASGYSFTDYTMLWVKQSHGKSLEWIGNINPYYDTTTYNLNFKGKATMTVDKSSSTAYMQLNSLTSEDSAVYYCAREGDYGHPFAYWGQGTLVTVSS
T1 sequence (VL, as listed by the source, chain 2 of 2): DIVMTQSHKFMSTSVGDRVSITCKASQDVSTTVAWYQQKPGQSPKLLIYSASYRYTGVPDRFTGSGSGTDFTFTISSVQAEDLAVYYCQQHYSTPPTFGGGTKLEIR
Assay: SPR; MAb DB81 bound to the chip; synthetic 19-mer CD4 peptides as analytes (Figure 5)
Details: both partners purified

B1: human CD4-derived 19-mer peptide GTWTCTVLQNQKKVEFKID (peptide)
peptide: GTWTCTVLQNQKKVEFKID
notes: aa; 180-198 of membrane CD4 from Hominidae (Homo, P. troglodytes); also called human peptide; source: synthetic peptide (solid-phase F-moc, RP-HPLC purified)
  binding result: binds
